According to patent US6670136 (TRUSTEES OF COLUMBIA UNIVERSITY IN THE CITY OF NEW YORK, dated 2003):

How the values were obtained:
[1] = biological target: cellular RAGE on human cells (HUVEC, Molt-4, PBMC, Jurkat) (human, UniProt Q15109 23-404); experiment: cell-based or functional assay
[2] = biological target: T1, RAGE on macrophage-like BV2 cells (macrophage (MP) RAGE) (UniProt Q62151 23-402, limits assumed); experiment: binding to macrophage RAGE in culture wells
T1 construct: whole, on cells; also called BV-2 macrophages

[3] = biological target: T2, human soluble RAGE (sRAGE), prepared from a baculovirus expression system (human, UniProt Q15109 23-342); experiment: binding to immobilized RAGE in culture wells
T2 construct: extracellular domain; Murine sRAGE was used only in the in vivo studies; also called purified RAGE; immobilized RAGE
Procedure: (Panel C–D) EN-RAGE binds purified RAGE (C) and BAECs (D): In C, human soluble RAGE was immobilized onto the wells of plastic dishes and in D, confluent BAECs were cultured onto tissue culture-treated wells. […] Where indicated, radiolabelled EN-RAGE (100 nM) was incubated with the indicated amount of excess sRAGE two hours prior to binding assay, or wells were preincubated for two hours with the indicated concentration of rabbit nonimmune IgG, or polyclonal monospecific rabbit anti-EN-RAGE IgG or anti-RAGE: IgG prior to binding assay and results reported as % maximal specific binding ±SD of the mean. These experiments were performed at least five times with analogous results.
(§1) Radioligand binding assays were performed in 96-well dishes to which had been adsorbed either purified human RAGE (5 μg/well) or bovine aortic endothelial cells. In the former case, after adsorption of human soluble RAGE to the plastic dish in carbonate/bicarbonate buffer (pH 9.3) overnight, wells were then washed with PBS containing Tween 20 (0.05%). Unoccupied binding sites on the plastic wells were blocked by incubation with PBS containing calcium/magnesium and bovine serum albumin (1%) for two hours at 37° C. […] Solution was then aspirated from the wells and counted in a gamma counter (LKB, Gaithersburg, Md.).

[4] = biological target: T3, RAGE on bovine aortic endothelial cells (BAEC RAGE) (bovine, UniProt Q28173 23-416); experiment: binding to endothelial cell RAGE in culture wells
T3 construct: whole, on cells; The target is endogenous RAGE on confluent BAEC monolayers; also called BAECs; endothelial (EC) RAGE
T3 sequence (looked up): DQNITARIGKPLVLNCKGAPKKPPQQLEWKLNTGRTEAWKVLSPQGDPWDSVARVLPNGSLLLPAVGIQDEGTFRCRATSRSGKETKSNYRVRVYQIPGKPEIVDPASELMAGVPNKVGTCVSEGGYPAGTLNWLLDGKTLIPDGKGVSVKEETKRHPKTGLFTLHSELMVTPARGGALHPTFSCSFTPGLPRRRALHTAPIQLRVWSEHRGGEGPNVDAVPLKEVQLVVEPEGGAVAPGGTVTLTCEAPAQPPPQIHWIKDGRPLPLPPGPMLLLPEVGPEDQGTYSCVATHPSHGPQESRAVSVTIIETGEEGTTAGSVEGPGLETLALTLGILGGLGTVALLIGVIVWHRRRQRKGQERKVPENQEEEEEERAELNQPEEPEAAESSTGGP
Procedure: (§2) Where indicated, radiolabelled EN-RAGE (100 nM) was incubated with the indicated amount of excess sRAGE two hours prior to binding assay, or wells were preincubated for two hours with the indicated concentration of rabbit nonimmune IgG, or polyclonal monospecific rabbit anti-EN-RAGE IgG or anti-RAGE: IgG prior to binding assay and results reported as % maximal specific binding ±SD of the mean. These experiments were performed at least five times with analogous results.
as §1, with “C. After aspiration of the wells, a radioligand binding assay was performed in the presence of the indicated concentration of radiolabelled EN-RAGE ± an 50-fold molar excess of unlabelled EN-RAGE in PBS containing calcium/magnesium and BSA, 0.2%, for 3 hrs at 37° C.” for “C.”, “Md.). […]” for “Md.).”

[5] = biological target: T3, RAGE on bovine aortic endothelial cells …; experiment: radioligand binding: 125I-EN-RAGE on confluent bovine aortic endothelial cells
Procedure: as §2
as §1, with “C. After aspiration of the wells, a radioligand binding assay was performed in the presence of the indicated concentration of radiolabelled EN-RAGE ± an 50-fold molar excess of unlabelled EN-RAGE in PBS containing calcium/magnesium and BSA, 0.2%, for 3 hrs at 37° C.” for “C.”, “Md.). […]” for “Md.).”

[6] = biological target: T2, human soluble RAGE (sRAGE), prepared …; experiment: radioligand binding: 125I-EN-RAGE on human sRAGE adsorbed to plastic wells, with or without 50-fold unlabelled EN-RAGE
Procedure: as §2
as §1, with “C. After aspiration of the wells, a radioligand binding assay was performed in the presence of the indicated concentration of radiolabelled EN-RAGE ± an 50-fold molar excess of unlabelled EN-RAGE in PBS containing calcium/magnesium and BSA, 0.2%, for 3 hrs at 37° C.” for “C.”, “Md.). […]” for “Md.).”

cellular RAGE on human cells (HUVEC, Molt-4, PBMC, Jurkat), sequence (Q15109 23-404): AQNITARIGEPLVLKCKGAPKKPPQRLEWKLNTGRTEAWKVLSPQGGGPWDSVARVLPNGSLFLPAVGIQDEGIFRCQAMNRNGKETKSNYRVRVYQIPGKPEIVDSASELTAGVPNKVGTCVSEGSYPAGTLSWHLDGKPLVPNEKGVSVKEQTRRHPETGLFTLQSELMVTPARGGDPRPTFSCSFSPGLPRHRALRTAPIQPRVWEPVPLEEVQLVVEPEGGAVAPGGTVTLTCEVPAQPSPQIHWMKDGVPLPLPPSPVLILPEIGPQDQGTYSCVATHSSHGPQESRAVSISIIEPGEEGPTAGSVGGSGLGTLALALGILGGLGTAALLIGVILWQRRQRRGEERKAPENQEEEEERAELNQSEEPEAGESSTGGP
T2 sequence (Q15109 23-342): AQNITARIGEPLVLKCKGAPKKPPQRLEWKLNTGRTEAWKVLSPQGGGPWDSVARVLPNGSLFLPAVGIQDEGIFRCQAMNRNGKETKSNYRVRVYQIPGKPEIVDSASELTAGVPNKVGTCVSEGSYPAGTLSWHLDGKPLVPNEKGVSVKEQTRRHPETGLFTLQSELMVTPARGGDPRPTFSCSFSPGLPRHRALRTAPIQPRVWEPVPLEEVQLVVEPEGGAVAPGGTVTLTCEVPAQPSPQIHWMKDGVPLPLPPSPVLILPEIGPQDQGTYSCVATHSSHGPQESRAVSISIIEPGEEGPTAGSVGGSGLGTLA
T1 sequence (Q62151 23-402 limits assumed): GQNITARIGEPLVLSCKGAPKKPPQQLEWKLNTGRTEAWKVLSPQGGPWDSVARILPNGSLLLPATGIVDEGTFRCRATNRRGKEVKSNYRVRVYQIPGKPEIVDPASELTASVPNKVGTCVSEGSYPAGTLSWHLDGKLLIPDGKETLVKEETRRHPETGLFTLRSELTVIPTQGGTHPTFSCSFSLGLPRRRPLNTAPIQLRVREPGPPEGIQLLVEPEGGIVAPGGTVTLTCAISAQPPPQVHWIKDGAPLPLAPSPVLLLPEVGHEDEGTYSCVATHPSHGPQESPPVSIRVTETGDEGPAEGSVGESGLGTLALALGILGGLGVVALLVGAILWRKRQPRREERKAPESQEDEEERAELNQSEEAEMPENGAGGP

B1: EN-RAGE (Extracellular Novel RAGE binding protein), recombinant bovine, expressed in Sf9 cells (ligand)
chain: TKLEDHLEGIINIFHQYSVRVGHFDTLNKRELKQLITKELPKTLQNTKDQPTIDKIFQDLDADKDGAVSFEEFVVLVSRVLKTAHIDIHK
notes: Recombinant protein made from a bovine lung cDNA in baculovirus/Sf9; In the cell assays it was unlabelled; also called radiolabelled EN-RAGE
For B1, the “adhesion of Molt-4 cells to cultured ECs” value [1] was 7 fold, the “expression of cell-surface VCAM-1 on cultured ECs” value [1] was 4.3 fold and the “nuclear NF-kB in HUVEC (EMSA, densitometry)” value [1] was ~5 fold. It also gave a Kd [2] of ~75 nM, a Kd [3] of ~75 nM and a Kd [4] of ~75 nM. For the same binder, the Kd [5] was ~90.3 nM and the Kd [6] was ~91 nM.

B2: purified S100B from human brain (Calbiochem-Novabiochem) (ligand, UniProt P04271 2-92, looked up)
chain: SELEKAMVALIDVFHQYSGREGDKHKLKKSELKELINNELSHFLEEIKEQEVVDKVMETLDNDGDGECDFQEFMAFVAMVTTACHEFFEHE
For B2, the “nuclear translocation of NF-kB in HUVEC (EMSA)” value [1] was ~13.9 fold.
